Data on two molecules can be found in publication PMC7786285 (Frontiers in Immunology, 2020).

The target of this assay is T1, EGFR-ECD-Fc chimera (Homo sapiens, UniProt P00533).
T1 construct: extracellular domain of the epidermal growth factor receptor, as Fc chimera; No catalogue number printed; detected through its Fc with a goat anti-human IgG Fc PE antibody; also called EGFR-Fc chimera; EGFR-Fc; source: bought: R&D
The experiment in a line: flow cytometry on cells; yeast cells displaying chimeric Fabs stained with EGFR-ECD-Fc chimera (100, 10 and 1 nM; sorting 250 nM down to 1 nM), detected with goat anti-human IgG Fc PE. Conditions: one partner purified. (In flow cytometry, cells or beads pass a laser one at a time.)

B1: FEB4 VH paired with the VL of H1, Fab displayed on yeast (Fab, V domains shown)
VH: AVTLDESGGGLQTPGGALSLVCKASGFTFSSHGMLWVRQAPGKGLEFVAGISTDGSSTSYGAPVKGRATISRDNGQSTVRLQLNNLRAEDTGTYYCAKDAYRCRNCAEDIDAWGHGTEVIVSS
VL: ALTQPSSVSANPGETVKITCSGGYSYYGWIQQKSPGSAPVTLIYNNDNRPSGIPSRFSGSTSGSTSTLTITGVQAEDEAVYYCGSYDGSAGIFGAGTTLTVL
Consider B1, for which the binding result was “binds”.

B2: FEB4 VH paired with the VL of H3, Fab displayed on yeast (Fab, V domains shown)
VH: AVTLDESGGGLQTPGGALSLVCKASGFTFSSHGMLWVRQAPGKGLEFVAGISTDGSSTSYGAPVKGRATISRDNGQSTVRLQLNNLRAEDTGTYYCAKDAYRCRNCAEDIDAWGHGTEVIVSS
VL: ALTQPSSVSANPGETVEITCSGGGSNSYYGWYQQKAPGSAPVTVIYDNTNRPSNIPSRFSGSLSDSTNTLTITGVQADDEAVYFCGNEDNTDSYVGIFGAGTTLTVL
With B2, the binding result was “binds”.
